The test system of data set [1] is MCF7. The experiment in a line: percentage of EdU-negative (G0-arrested) nuclei per well, 72 h; higher = more G0 arrest. The conditions noted are these: reference: sequence is the full UniProt precursor, the tested protein was the secreted form or ectodomain.
Data set [2] concerns hTERT-HMEC. The description is as above. The note with it: reference: sequence is the full UniProt precursor, the tested protein was the secreted form or ectodomain.
[3] abbreviates: protein concentration 0.0225 µM.
The mark [4] stands for this setting: protein concentration 0.0357143 µM.
The mark [5] stands for this setting: protein concentration 0.357143 µM.
Setting [6] is: protein concentration 0.02125 µM.
[7] abbreviates: protein concentration 0.2125 µM.
Setting [8] is: protein concentration 0.00828571 µM.
Setting [9] is: protein concentration 0.0828571 µM.
Setting [10] is: protein concentration 0.0307925 µM.
Where [11] appears, read: protein concentration 0.307925 µM.

± gives the standard deviation of the averaged measurements.
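Further: secreted proteins added to cultured cells, EdU pulse at the end, nuclei found by Hoechst imaging, EdU status from nuclear versus surrounding ring intensity ratio, PBS as neutral control.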

With “MDFPCLWLGLLLPLVAALDFNYHRQEGMEAFLKTVAQNYSSVTHLHSIGKSVKGRNLWVLVVGRFPKEHRIGIPEFKYVANMHGDETVGRELLLHLIDYLVTSDGKDPEITNLINSTRIHIMPSMNPDGFEAVKKPDCYYSIGRENYNQYDLNRNFPDAFEYNNVSRQPETVAVMKWLKTETFVLSANLHGGALVASYPFDNGVQATGALYSRSLTPDDDVFQYLAHTYASRNPNMKKGDECKNKMNFPNGVTNGYSWYPLQGGMQDYNYIWAQCFEITLELSCCKYPREEKLPSFWNNNKASLIEYIKQVHLGVKGQVFDQNGNPLPNVIVEVQDRKHICPYRTNKYGEYYLLLLPGSYIINVTVPGHDPHITKVIIPEKSQNFSALKKDILLPFQGQLDSIPVSNPSCPMIPLYRNLPDHSAATKPSLFLFLVSLLHIFFK”, the “percentage of EdU-negative” value in data set [1] (setting [3]) was found to be 25.2 ± 4.8%; in data set [1] (protein concentration 0.225 µM), 26.7 ± 1.4%; in data set [2] (setting [3]), 4.44 ± 0.072%; in data set [2] (protein concentration 0.225 µM), 4.97 ± 0.2%.
With “MALPSRILLWKLVLLQSSAVLLHSGSSVPAAAGSSVVSESAVSWEAGARAVLRCQSPRMVWTQDRLHDRQRVLHWDLRGPGGGPARRLLDLYSAGEQRVYEARDRGRLELSASAFDDGNFSLLIRAVEETDAGLYTCNLHHHYCHLYESLAVRLEVTDGPPATPAYWDGEKEVLAVARGAPALLTCVNRGHVWTDRHVEEAQQVVHWDRQPPGVPHDRADRLLDLYASGERRAYGPLFLRDRVAVGADAFERGDFSLRIEPLEVADEGTYSCHLHHHYCGLHERRVFHLTVAEPHAEPPPRGSPGNGSSHSGAPGPDPTLARGHNVINVIVPESRAHFFQQLGYVLATLLLFILLLVTVLLAARRRRGGYEYSDQKSGKSKGKDVNLAEFAVAAGDQMLYRSEDIQLDYKNNILKERAELAHSPLPAKYIDLDKGFRKENCK [Q9BRK3]”, the “percentage of EdU-negative” value came to 23.2 ± 2.3% in data set [1] (setting [4]), 25 ± 0.57% in data set [1] (setting [5]), 4.84 ± 0.53% in data set [2] (setting [4]) and 5.72 ± 0.27% in data set [2] (setting [5]).
Regarding “MDPRKVNELRAFVKMCKQDPSVLHTEEMRFLREWVESMGGKVPPATQKAKSEENTKEEKPDSKKVEEDLKADEPSSEESDLEIDKEGVIEPDTDAPQEMGDENAEITEEMMDQANDKKVAAIEALNDGELQKAIDLFTDAIKLNPRLAILYAKRASVFVKLQKPNAAIRDCDRAIEINPDSAQPYKWRGKAHRLLGHWEEAAHDLALACKLDYDEDASAMLKEVQPRAQKIAEHRRKYERKREEREIKERIERVKKAREEHERAQREEEARRQSGAQYGSFPGGFPGGMPGNFPGGMPGMGGGMPGMAGMPGLNEILSDPEVLAAMQDPEVMVAFQDVAQNPANMSKYQSNPKVMNLISKLSAKFGGQA”, the “percentage of EdU-negative” value was found to be 24.8 ± 1.7% in data set [1] (setting [6]), 27.4 ± 0.36% in data set [1] (setting [7]), 4.96 ± 0.58% in data set [2] (setting [6]) and 5.35 ± 0.39% in data set [2] (setting [7]).
“MTRTYENFQYLENKVKVQGFKNGPLPLQSLLQRLCSGPCHLLLSLGLGLLLLVIICVVGFQNSKFQRDLVTLRTDFSNFTSNTVAEIQALTSQGSSLEETIASLKAEVEGFKQERQAGVSELQEHTTQKAHLGHCPHCPSVCVPVHSEMLLRVQQLVQDLKKLTCQVATLNNNASTEGTCCPVNWVEHQDSCYWFSHSGMSWAEAEKYCQLKNAHLVVINSREEQNFVQKYLGSAYTWMGLSDPEGAWKWVDGTDYATGFQNWKPGQPDDWQGHGLGGGEDCAHFHPDGRWNDDVCQRPYHWVCEAGLGQTSQESH [Q8IUN9]”: the “percentage of EdU-negative” value in data set [1] (setting [3]) is 24.9 ± 1%; in data set [1] (protein concentration 0.225 µM), 26.5 ± 0.74%; in data set [2] (setting [3]), 5.25 ± 0.3%; in data set [2] (protein concentration 0.225 µM), 4.954 ± 0.011%.
Turning to “MWAQLLLGMLALSPAIAEELPNYLVTLPARLNFPSVQKVCLDLSPGYSDVKFTVTLETKDKTQKLLEYSGLKKRHLHCISFLVPPPAGGTEEVATIRVSGVGNNISFEEKKKVLIQRQGNGTFVQTDKPLYTPGQQVYFRIVTMDSNFVPVNDKYSMVELQDPNSNRIAQWLEVVPEQGIVDLSFQLAPEAMLGTYTVAVAEGKTFGTFSVEEYVLPKFKVEVVEPKELSTVQESFLVKICCRYTYGKPMLGAVQVSVCQKANTYWYREVEREQLPDKCRNLSGQTDKTGCFSAPVDMATFDLIGYAYSHQINIVATVVEEGTGVEANATQNIYISPQMGSMTFEDTSNFYHPNFPFSGKIRVRGHDDSFLKNHLVFLVIYGTNGTFNQTLVTDNNGLAPFTLETSGWNGTDVSLEGKFQMEDLVYNPEQVPRYYQNAYLHLRPFYSTTRSFLGIHRLNGPLKCGQPQEVLVDYYIDPADASPDQEISFSYYLIGKGSLVMEGQKHLNSKKKGLKASFSLSLTFTSRLAPDPSLVIYAIFPSGGVVADKIQFSVEMCFDNQVSLGFSPSQQLPGAEVELQLQAAPGSLCALRAVDESVLLLRPDRELSNRSVYGMFPFWYGHYPYQVAEYDQCPVSGPWDFPQPLIDPMPQGHSSQRSIIWRPSFSEGTDLFSFFRDVGLKILSNAKIKKPVDCSHRSPEYSTAMGAGGGHPEAFESSTPLHQAEDSQVRQYFPETWLWDLFPIGNSGKEAVHVTVPDAITEWKAMSFCTSQSRGFGLSPTVGLTAFKPFFVDLTLPYSVVRGESFRLTATIFNYLKDCIRVQTDLAKSHEYQLESWADSQTSSCLCADDAKTHHWNITAVKLGHINFTISTKILDSNEPCGGQKGFVPQKGRSDTLIKPVLVKPEGVLVEKTHSSLLCPKGKVASESVSLELPVDIVPDSTKAYVTVLGDIMGTALQNLDGLVQMPSGCGEQNMVLFAPIIYVLQYLEKAGLLTEEIRSRAVGFLEIGYQKELMYKHSNGSYSAFGERDGNGNTWLTAFVTKCFGQAQKFIFIDPKNIQDALKWMAGNQLPSGCYANVGNLLHTAMKGGVDDEVSLTAYVTAALLEMGKDVDDPMVSQGLRCLKNSATSTTNLYTQALLAYIFSLAGEMDIRNILLKQLDQQAIISGESIYWSQKPTPSSNASPWSEPAAVDVELTAYALLAQLTKPSLTQKEIAKATSIVAWLAKQHNAYGGFSSTQDTVVALQALAKYATTAYMPSEEINLVVKSTENFQRTFNIQSVNRLVFQQDTLPNVPGMYTLEASGQGCVYVQTVLRYNILPPTNMKTFSLSVEIGKARCEQPTSPRSLTLTIHTSYVGSRSSSNMAIVEVKMLSGFSPMEGTNQLLLQQPLVKKVEFGTDTLNIYLDELIKNTQTYTFTISQSVLVTNLKPATIKVYDYYLPDEQATIQYSDPCE [A8K2U0]”, the “percentage of EdU-negative” value in data set [1] (setting [8]) was found to be 23.3 ± 1.1%; in data set [1] (setting [9]) it was 29.5 ± 1.8%; in data set [2] (setting [8]), 5.09 ± 0.24%; in data set [2] (setting [9]), 5.43 ± 0.39%.
“MAFLGLFSLLVLQSMATGATFPEEAIADLSVNMYNRLRATGEDENILFSPLSIALAMGMMELGAQGSTQKEIRHSMGYDSLKNGEEFSFLKEFSNMVTAKESQYVMKIANSLFVQNGFHVNEEFLQMMKKYFNAAVNHVDFSQNVAVANYINKWVENNTNNLVKDLVSPRDFDAATYLALINAVYFKGNWKSQFRPENTRTFSFTKDDESEVQIPMMYQQGEFYYGEFSDGSNEAGGIYQVLEIPYEGDEISMMLVLSRQEVPLATLEPLVKAQLVEEWANSVKKQKVEVYLPRFTVEQEIDLKDVLKALGITEIFIKDANLTGLSDNKEIFLSKAIHKSFLEVNEEGSEAAAVSGMIAISRMAVLYPQVIVDHPFFFLIRNRRTGTILFMGRVMHPETMNTSGHDFEEL”: the “percentage of EdU-negative” value came out at 22.8 ± 1.4% in data set [1] (setting [10]), 27.7 ± 2.1% in data set [1] (setting [11]), 4.97 ± 0.78% in data set [2] (setting [10]) and 49.1 ± 2.1% in data set [2] (setting [11]).
